Fewer inactive variants are shown than the library holds.
How the values were obtained:
[1] = test system: biotinyl-Phe-oxazolone; assay: self-aminoacylation, catalytic enhancement (BFO) (fold over background); higher = more active; k-Seq, kA / k0A0; sequences stand for … in GGGAAUGGAUCCACAUCUACGAAUUC…UUCACUGCAGACUUGACGAAGCUG
Summary of the method: (§1)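 Catalytic enhancement equals the median kA over the uncatalyzed rate, the latter read from the low-activity peak of a bimodal Gaussian fit. Values of kA came from fitting each sequence's fraction reacted to a pseudo-first-order model, with 1000 bootstraps. Reacted RNA was captured with streptavidin and quantified by triplicate qPCR and Illumina sequencing after 90 minutes at room temperature with 2–1250 μM biotinyl-aminoacyl-oxazolone and 0.43 μM mutagenized RNA pools bearing a 21-nt variable region.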

[2] = test system: biotinyl-Ile-oxazolone; assay: self-aminoacylation, catalytic enhancement (BIO) (fold over background); higher = more active; k-Seq, kA / k0A0; sequences stand for … in GGGAAUGGAUCCACAUCUACGAAUUC…UUCACUGCAGACUUGACGAAGCUG
Summary of the method: as §1

[3] = test system: biotinyl-Met-oxazolone; assay: self-aminoacylation, catalytic enhancement (BMO) (fold over background); higher = more active; k-Seq, kA / k0A0; sequences stand for … in GGGAAUGGAUCCACAUCUACGAAUUC…UUCACUGCAGACUUGACGAAGCUG
Summary of the method: as §1

[4] = test system: biotinyl-Val-oxazolone; assay: self-aminoacylation, catalytic enhancement (BVO) (fold over background); higher = more active; k-Seq, kA / k0A0; sequences stand for … in GGGAAUGGAUCCACAUCUACGAAUUC…UUCACUGCAGACUUGACGAAGCUG
Summary of the method: as §1

[5] = test system: biotinyl-Leu-oxazolone; assay: self-aminoacylation, catalytic enhancement (BLO) (fold over background); higher = more active; k-Seq, kA / k0A0; sequences stand for … in GGGAAUGGAUCCACAUCUACGAAUUC…UUCACUGCAGACUUGACGAAGCUG
Summary of the method: as §1

[6] = test system: biotinyl-Trp-oxazolone; assay: self-aminoacylation, catalytic enhancement (BWO) (fold over background); higher = more active; k-Seq, kA / k0A0; sequences stand for … in GGGAAUGGAUCCACAUCUACGAAUUC…UUCACUGCAGACUUGACGAAGCUG
Summary of the method: as §1

| Sequence | self-aminoacylation [1] | self-aminoacylation [2] | self-aminoacylation [3] | self-aminoacylation [4] | self-aminoacylation [5] | self-aminoacylation [6] |
| --- | --- | --- | --- | --- | --- | --- |
| UUUACCCUGGUCAUUGAGUGA [Fam2.1 aminoacylation ribozyme variant] | 38.1 | 3.76 | 7.86 | 3.91 | 7.06 | 10.1 |
| UUUACCCUGGUUAUCGAGUGA [Fam2.1 aminoacylation ribozyme variant] | 25.7 | 4.28 | 7.81 | 4.19 | 7.57 | 10.6 |
| UUUACCCUGUUCAUCGAGUGA [Fam2.1 aminoacylation ribozyme variant] | 5.37 | 2.21 | 4.11 | 2.56 | 3.91 | 5.71 |
| UUUACCCUUGUCAUCGAGUGA [Fam2.1 aminoacylation ribozyme variant] | 19.9 | 3.37 | 6.04 | 3.38 | 6.18 | 7.94 |
| UUUACCGUGGUCAUCGAGUGA [Fam2.1 aminoacylation ribozyme variant] | 17.7 | 3.2 | 5.63 | 3.63 | 5.18 | 7.07 |
| UUUCACCUAGGACAUCGGGUG [Fam2.2 aminoacylation ribozyme variant] | 26.8 | 3 | 3.39 | 3.19 | 3.31 | 4.64 |
| UUUCACCUAGUUCAUCGGGUG [Fam2.2 aminoacylation ribozyme variant] | 18.6 | 2.44 | 2.6 | 3.09 | 2.99 | 3.92 |
| UUUCGCCUAGGUCAUCGGGUG [Fam2.2 aminoacylation ribozyme variant] | 44.1 | 5.36 | 6.25 | 5.33 | 7.49 | 7.75 |
| UUUGACCUAGGUCAUCGGGUG [Fam2.2 aminoacylation ribozyme variant] | 26.6 | 4.3 | 4.5 | 4.23 | 5.93 | 6.51 |
